# In patent US12534540B2, “CYP1A1-targeted monoclonal antibody with reactivity across vertebrate taxa” (Clemson University Research Foundation, priority 2023, dated 2026):
# Like-named read-outs stand apart in the source and are kept apart here.
# T1: CYP1A (Mus musculus, UniProt P00184)
# T1 sequence (P00184 1-524): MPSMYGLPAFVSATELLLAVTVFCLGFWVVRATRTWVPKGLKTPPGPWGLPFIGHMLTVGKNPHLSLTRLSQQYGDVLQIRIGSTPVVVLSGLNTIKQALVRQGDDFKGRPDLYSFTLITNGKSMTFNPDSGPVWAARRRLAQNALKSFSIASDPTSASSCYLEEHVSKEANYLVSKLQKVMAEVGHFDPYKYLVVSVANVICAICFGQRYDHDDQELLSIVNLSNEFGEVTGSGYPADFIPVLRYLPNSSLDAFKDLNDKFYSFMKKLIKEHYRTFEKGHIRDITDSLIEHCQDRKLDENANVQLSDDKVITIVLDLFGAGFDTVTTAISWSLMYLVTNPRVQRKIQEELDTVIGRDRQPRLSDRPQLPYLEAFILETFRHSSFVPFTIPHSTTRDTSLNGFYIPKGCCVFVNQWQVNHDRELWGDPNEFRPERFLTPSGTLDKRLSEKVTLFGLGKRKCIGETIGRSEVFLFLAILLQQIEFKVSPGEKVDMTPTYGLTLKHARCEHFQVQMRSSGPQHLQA
# B1: mAb CRC4: zebrafish CYP1A-targeted mouse monoclonal antibody; VH SEQ ID NO:17, VL SEQ ID NO:20, CDRs SEQ ID NOs:28-33 (antibody, V domains shown)
# VH: QVTLKESGPGILQPSQTLSLTCSFSGFSLSTSGMGVNWIRKPSGKGLEWLAHIFWDDDKRYNPSLKSRLTISKDTSRNQVFLMITSVDTADTATYYCASLAMDYWGQGTSVTVSS
# VL: DIVMTQGASSVTVTPGESVSISCRSSKSLLHSNGRTFLYWFLQRPGQSPQLLIYRMSNLASGVPDRVSGSGSGTAFTLRISRVEAEDVGVYYCMQHLEYPFTFGGGTRLELK
# Key:
# CYP1A [1] = test: Tissue immunohistochemistry, rainbow trout liver; details: rainbow trout treated with 3-NF; FIG. 3 panels G and H
# Description: (§1) Grossly dissected archived tissues (fixed and stored at 4° C. in 70% ethanol) were processed and embedded in ParaPlast Extra. Newly embedded tissues were then sectioned and affixed to charged slides for immunohistochemistry. Mouse liver tissues used for this study were from previous studies wherein mice were exposed to 1 mg/kg PCB-126 prior to tissue fixation. Archived rainbow trout livers (and microsomes stored at −80° C. from beta-naphthoflavone ([…])-treated animals from a previous study (Rice et al. 1998 Mar. environ. Res. 46:87-91) were used for immunohistochemistry and immunoblotting. Archived liver tissue from Gulf killifish collected from sites affected by the Deepwater Horizon spill (DHOS) were analyzed for CYP1A alongside livers from a lab-held colony of CYP1A-recalcitrant Gulf killifish, which is used as a molecular control (naturally acquired CYP1A knockdown) (Oziolor et al. 2016 Aquat. Toxicol. 175:222-231). Finally, previously analyzed embryonic chicken livers exposed to airborne volatiles from DHOS oil were included for additional species comparison.
# (§2) Zebrafish (strain AB) exposed to PCB-126 (Ulra Scientific) were also used for this study. Zebrafish were housed at the former Clemson Institute of Environmental Toxicology, Pendleton SC and maintained under Clemson University IACUC approved methods. […]
# CYP1A [2] = molecular target: T1, CYP1A
# Description: as §1
# (§3) Zebrafish (strain AB) exposed to PCB-126 (Ulra Scientific) were also used for this study. Zebrafish were housed at the former Clemson Institute of Environmental Toxicology, Pendleton SC and maintained under Clemson University IACUC approved methods. Two juvenile male and two juvenile female zebrafish (40 dpf) were exposed for 48 h to either 10 μM PCB-126 or 0.10% DMSO in 1 L glass bottles containing maintenance water from the recirculating system and supplied with gentle aeration. Following exposure, the 4 fish per treatment were euthanized on ice with buffered Tricaine®, their abdominal cavities opened, and placed in 10% aqueous buffered zinc formalin (Z-Fix, Anatech, Ltd., Battle Creek, MI, USA) for 2 days, and the fixative replaced with 70% ethanol and stored at 4° C. Prior to processing, zebrafish were decalcified in 0.35 M EDTA, pH 7.8 at room temperature (RT) for 6 days, then processed for microtomy as above. Fish and chicken tissue IHC was performed using a horse-anti-mouse IgG VectaLabs ABC-Elite kit (PK-6102), while mouse tissue IHC was performed using the mouse-on-mouse (M.O.M.) anti-mouse IgG VectaLabs ABC-Ultra kit (BMK-2202)
# (§4) Whole zebrafish tissues were sectioned at 7-9 μm and mouse, trout, killifish, and chicken tissues were sectioned at 4-5 μm on a Microm 325 rotary microtome. […] Additional screening assays included isotype controls.
# CYP1A [3] = test system: CYP1A
# Description: as §1, §3, §4
# [4] = test system: zebrafish CYP1A peptide used for immunizations
# Description: Primary hybridoma supernatants were then screened by ELISA against unconjugated peptide for a minimal signal of three-fold optical density readings above wells probed with an irrelevant antibody (mAb 3F9 against major vault protein), then cloned by limiting dilution for further testing.
# CYP1A [5] = test: Tissue immunohistochemistry, Gulf killifish liver; details: crude oil-exposed adult gulf killifish vs genetically resistant population; FIG. 3 panels E and F
# Description: as §1, §2
# [6] = test system: induced CYP1A1 across vertebrate taxa; assay type: binding
# Description: Screening mAbs against cell line lysates: […] This medium also supports the growth of frog XLK-WG cells (ATCC, Manassas, VA, USA). Other cells and tissues used for testing and screening are outlined in Table 2. Arochlor 1254-induced and non-induced rat liver S9 fractions were thawed immediately upon receipt from the supplier and prepared for SDS-PAGE-immunoblotting by boiling for 7 min in reducing sample buffer (Thermo Fisher J61337.AD) containing 50 μM PMSF. Commercially sourced HEK cell lysates over-expressing recombinant human CYP1A1 (Origene, Rockville, MD, USA) were prepared similarly. […]-1, and HEPA1C1C7 cells were grown to near confluence in 6-well plates ([…], Corning). Plates seeded with ZFL cells and PLHC-1 cells were sealed with parafilm and kept in sealed containers to avoid external CO2. Cells were treated for 48 h with 10 μM PCB-126 (CAS 57465-28-8, Ultra Scientific) dissolved in DMSO or 0.01% DMSO as a carrier control. XLK-WG cells were grown to near confluence in sealed T-75 flasks, then treated for 12 h with 50 nM of the AHR ligand 6-Formylindolo [3,2-b] carbazole (FICZ) (CAS 172922-91-7, Tocris Biosciences, Bristol, UK) in DMSO or 0.01% DMSO, and again for an additional 12 h with the same. […] Overlying supernatants were removed and transferred to clean tubes and the protein content quantified. […]
# [7] = molecular target: core vertebrate CYP1A sequence IRDITSLI (SEQ ID NO:35) (Homo sapiens, UniProt P04798); test: ELISA against conserved core CYP1A peptide; assay type: binding; details: FIG. 1 panel B
# Description: Using additional screening approaches, ELISAs were carried out to determine if either of the three mAbs would recognize the core vertebrate CYP1A sequence [sequence] (SEQ ID NO:35)). […] Based on the general rule of thumb that confluent supernatants contain approximately 30 μg/mL of specific antibody, a total of 60 μg of the peptide in 100 μL PBS as the highest concentration was serially diluted and 50 μL of each dilution were mixed with 50 μL confluent supernatants to yield 100 μL of total mixture for screening ELISA plates coated with the original zebrafish peptide. This mixture of hybridoma supernatant and peptide dilutions was allowed to incubate overnight at 4° C. The next day these mixtures of 100 μL total sample were mixed by gentle agitation and added to zebrafish CYP1A1 peptide-pre-coated ELISA plates and incubated for 2 h at RT. After extensive washings with PBST, the plates were incubated with goat anti-mouse IgG conjugated with alkaline phosphatase for 2 h, washed extensively, and developed and quantified at 405 nm and the data recorded.
# Chain of zebrafish CYP1A peptide used for immunizations (as listed by the source): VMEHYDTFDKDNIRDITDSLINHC
molecule,measurement,setting,value
B1,CYP1A staining intensity in liver by IHC,CYP1A [1],most intense staining
same,CYP1A detection in liver by IHC,CYP1A [2],easily detected in PCB-126-exposed mouse livers but not unexposed controls
same,CYP1A detection in liver by IHC,CYP1A [3],easily detected
same,CYP1A staining intensity in liver by IHC,CYP1A [3],most intense staining
same,staining after antigen retrieval,CYP1A [3],more favorable staining
same,staining intensity of chicken tissues compared with mAb C10-7,CYP1A [3],same intensity as seen using mAb C10-7
same,ELISA reactivity against zebrafish CYP1A peptide (selection criteria),[4],meeting selection criteria
same,CYP1A detection in liver by IHC,CYP1A [5],easily detected in adult gulf killifish but not in individuals from a genetically resistant population
same,recognition of treatment-induced CYP1A protein by immunoblotting,[6],recognized by mAb CRC4 across all vertebrate taxa examined
same,recognition of core vertebrate CYP1A peptide by ELISA,[7],recognized this peptide sequence
